Data from patent US20260042834A1 (HBM ALPHA THERAPEUTICS, published 2026).
Positions count from the first letter of the chain named.

T1: corticotropin-releasing hormone (CRH) peptide (human and mouse, not fully specified)
T1 peptide: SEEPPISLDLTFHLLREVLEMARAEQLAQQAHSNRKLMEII

T2: human UCN1 peptide (human, UniProt P55089 83-122)
T2 peptide (looked up): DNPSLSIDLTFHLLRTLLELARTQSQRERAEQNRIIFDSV

T3: biotinylated CRH (human and mouse, not fully specified; biotinylated, position not stated)
T3 construct: also called Biotin-CRH; biotin-labeled CRH
T3 peptide: T1 peptide

T4: CRH (NT Biotin) (human and mouse, not fully specified; biotin at the N-terminus)
T4 peptide: T1 peptide

T5: CRH (CT Biotin) (human and mouse, C-terminal K-Biotin)
T5 construct: also called Peptide 4 (CRH-Biotin)
T5 peptide: T1 peptide

T6: hUCN1 (NT Biotin) (human, UniProt P55089 83-122, biotin at the N-terminus)
T6 construct: also called human UCN1 (NT biotin)
T6 peptide (looked up): T2 peptide (looked up)

T7: hUCN1 (CT Biotin) (human, UniProt P55089 83-122, biotin at the C-terminus)
T7 construct: also called human UCN1 (CT biotin)
T7 peptide (looked up): T2 peptide (looked up)

T8: human UCN2 peptide (human, UniProt Q96RP3 72-109, limits assumed, not fully specified; biotin at N- or C-terminus in the ELISA)
T8 construct: also called hUCN2; hUCN2 (NT Biotin)
T8 peptide (looked up): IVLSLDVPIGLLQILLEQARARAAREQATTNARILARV

T9: N-Terminal CRH (human and mouse, C-terminal K-Biotin)
T9 construct: also called N-Ter-CRH (CT-Bion)
T9 peptide: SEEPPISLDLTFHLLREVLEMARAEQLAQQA

T10: human UCN3 peptide (human, UniProt Q969E3 120-157, not fully specified; biotin at N- or C-terminus in the ELISA)
T10 construct: also called hUCN3; hUCN3 (NT Biotin)
T10 peptide (looked up): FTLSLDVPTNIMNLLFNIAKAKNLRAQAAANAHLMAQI

B1: PR302341-48 (antibody, human IgG1, kappa, V domains shown)
VH: QVQLVQSGAEVKKPGASVKVSCKASGYTFTDYFMKWVRQAPGQGLEWMGVINPNQGDIFYNQKFKGRVTMTVDKSTSTAYMELSSLRSEDTAVYYCARGTDRALFAYWGQGTLVTVSS
VL: DVVMTQTPLSSPVTLGQPASISCRSGQSIVHSDANTYLEWYQQRPGQPPRLLIYKVSNRFSGVPDRFSGSGAGTDFTLKISRVEAEDLGVYYCFQGSHIPWTFGGGTKVEIKR
notes: Humanized, PTM-removed variant of PR302341
B2: PR302309-11 (antibody, human IgG1, kappa, V domains shown)
VH: QIQLVQSGSELKKPGASVKVSCKASGYTFTNYGMNWVRQAPGQGLEWMGWINTYTGEPIYTDDFKGRFVFSLDTSVSTAYLQISSLKAEDTAVYYCSRSTMITTGGVFAYWGQGTLVTVSS
VL: B1 VL with V2I, G26S, S28T, A34G, Y41L, L88V, I99V
notes: Humanized variant of PR302309
B3: PR302341-55 (antibody, human IgG1, kappa, V domains shown)
VH: B1 VH with G44R, Q55N, G56A, M70I, V72R, K74T, T76A
VL: B1 VL with T7S, S11L, A34G, P48S, A72S
notes: as for B1
B4: PR302341-60 (antibody, human IgG1, kappa, V domains shown)
VH: B1 VH with G44R, M70I, V72R, K74T, T76A
VL: B1 VL with T7S, S11L, P48S, A72S
notes: as for B1

How the values were obtained:
[1] = biological target: T1, corticotropin-releasing hormone (CRH) …; experiment: cell-based or functional assay
human UCN1 peptide = biological target: T2, human UCN1 peptide; experiment: cell-based or functional assay
biotinylated CRH = biological target: T3, biotinylated CRH; experiment: Octet BLI, biotinylated CRH on SA sensor
CRH (NT Biotin) = biological target: T4, CRH (NT Biotin); experiment: ELISA, biotin peptide on streptavidin plate
Experimental: (§1) Streptavidin (Thermo, Cat: 21125) was diluted in PBS to a concentration of 2 μg/ml. 100 μl of diluted streptavidin was added per well to ELISA microplates, and the plates were incubated overnight at 4° C. […] 100 μL of 3,3′,5,5′-tetramethylbenzidine (TMB) substrate (Biopanda, Cat: TMB-S-003) was added, and the plates were incubated at room temperature for 15 minutes. 100 μL of ELISA stopping solution (Solarbio, Cat #: C1058) was added to terminate the reaction, and the optical density at 450 nm (OD450 nm) was determined by an ELISA plate reader (Molecular Devices, Spectra max 384 plus).

CRH (CT Biotin) = biological target: T5, CRH (CT Biotin); experiment: ELISA, biotin peptide on streptavidin plate
Experimental: as §1

hUCN1 (NT Biotin) = biological target: T6, hUCN1 (NT Biotin); experiment: ELISA, biotin peptide on streptavidin plate
Experimental: as §1

hUCN1 (CT Biotin) = biological target: T7, hUCN1 (CT Biotin); experiment: ELISA, biotin peptide on streptavidin plate
Experimental: as §1

human UCN2 peptide [2] = biological target: T8, human UCN2 peptide; experiment: ELISA on streptavidin-captured hUCN2 (NT biotin) and hUCN2 (CT biotin), mAb at 100 nM and 10 nM; axis labelled RLU, scale 0-4
Experimental: (§2) Streptavidin (Thermo, Cat: 21125) was diluted in PBS with a concentration of 2 μg/mL. 100 μL of diluted streptavidin was added per well to ELISA microplates, and the plates were incubated overnight at 4° C. Plates were blocked with ELISA blocking solution (containing 2% w/v BSA, 0.05% (v/v) Tween-20, pH 7.4 PBS buffer) at 37° C. for 1 hour, and then incubated with either 1 μg/mL hUCN1 (NT Biotin), hUCN1 (CT Biotin), hUCN2 (NT Biotin), hUCN2 (CT Biotin), hUCN3 (NT Biotin), or hUCN3 (CT Biotin) for 1 hour at 37° C. […] 100 μl of TMB Substrate (Biopanda, Cat: TMB-S-003) was added, and the plates were incubated at room temperature for 15 minutes. 100 μL of ELISA stopping solution (Solarbio, Cat #: C1058) was then added to terminate the reaction, and the OD450 nm was determined by an ELISA plate reader (Molecular Devices, Spectra max 384 plus).

N-Terminal CRH = biological target: T9, N-Terminal CRH; experiment: ELISA, biotin peptide on streptavidin plate
Experimental: as §1

human UCN2 peptide [3] = biological target: T8, human UCN2 peptide; experiment: ELISA on streptavidin-captured hUCN2 (NT biotin) and hUCN2 (CT biotin), mAb at 100 nM and 10 nM, OD450
Experimental: as §2

human UCN3 peptide = biological target: T10, human UCN3 peptide; experiment: ELISA on streptavidin-captured hUCN3 (NT biotin) and hUCN3 (CT biotin), mAb at 100 nM and 10 nM, OD450
Experimental: as §2

Row | Binder | CHO-CRE-hCRHR1 0.5 nM CRH IC50 [1] [pM] | CHO-CRE-hCRHR1 1 nM hUCH1 IC50 (human UCN1 peptide) [pM] | hUCN1 IC50/ CRH IC50 (human UCN1 peptide) [fold] | Kd (biotinylated CRH) [pM] | koff (biotinylated CRH) [s⁻¹] | kon (biotinylated CRH) [M⁻¹ s⁻¹] | EC50 (CRH (NT Biotin)) [pM] | EC50 (CRH (CT Biotin)) [pM] | EC50 (hUCN1 (NT Biotin)) [pM] | EC50 (hUCN1 (CT Biotin)) [pM] | binding result (human UCN2 peptide [2]) | EC50 (N-Terminal CRH) [pM] | binding result (human UCN2 peptide [3]) | binding result (human UCN3 peptide)
1 | B1 | 507 | 30000 | 59 | < 1 | < 1e-07 | 1.04e+06 | 45 | 28 | 17 | 23 | no binding (tested: 100 nM) | – | – | –
2 | B2 | 2120 | – | – | 55.1 | 8.48e-06 | 154000 | 32 | 32 | 78 | 451 | – | 28 | no binding (tested: 100 nM) | no binding (tested: 100 nM)
3 | B3 | 105 | 28000 | 267 | < 1 | < 1e-07 | 1.2e+06 | 22 | 19 | 13 | 18 | no binding (tested: 100 nM) | – | – | –
4 | B4 | 878 | 71000 | 81 | 14.2 | 3.35e-05 | 2.49e+06 | 43 | 36 | 26 | 36 | no binding (tested: 100 nM) | – | – | –
